In the DeepSol protein solubility set:

Assay: soluble on expression in E. coli; label from the status in PepcDB or PDB records

Row | Sequence | soluble on expression in E. coli
1 | AEKTNYAVTYKSDSVPSISMAVNTEQSSHYISQFIAVQGLEDHSAKSIFIQDMLQRIVSKRLMHYVREELSLDYAPYALMVNADSEFKPHWVMGAQVDPKNAELIESAIDKVIKDLLRGVTENEVNAAAKQLVVDLEPLKNNSTQQAWLLNRYTIHNYGIEALFGISETANSVNAEDINRLIKYSFGKNSHQFKYLSTPI | not soluble
2 | MIQDVIEKKLSDEFQPEFLKVINESDMHNVPRGSESHFKVTVVSERFAGLRPVARHRLVNQTLADELANHIHALAIHTYTTQEWQQMNQESPESPMCLGGSRKSAQ | not soluble
3 | MAPGTAELEIDETLHLLRMVMQREFIHYLETLPGTKELFIDKCLLRPLDMIATSSDMKRHGVKRIMHFDLQKSPQVWNIEIDQRVFFLRPNVENARKIVEYVEESSENRSICVIWCNRQLEECDLAFESSGVIGHITQLSLNMCLLPLESDLFSLQHVESAQPDLFSVANMFVALQNLYGVIPTVYGLGSESKNLWNLVHALCSSNELRARPDQPISHLFLFDRQLDPVPVLLTGASYEGLLHEFFTIDCGKLAFPVDLRKQVQTGPLDFDWIEINPEEDKEAHQQNRGDTVKLDNCEDIFASIRNKHVTAALEFLHSKAKSIQKSIEKSSMIDDVADYRNFVEKDLRALKKDHKHCELHINACEMMMNKVKMEDYRTMFKLEHEMLLGTVTHEEYFDFVFERVPMRSCRDVVLSMMSLASLKLDGVPDDTYNEFVEMYLQKYGYEHMFELQNLRNSRVIYARRHIAHDRTISERARTWETLARKFRIVKGNEPMDMSNPSDMSYVFGARISPLLCKIVEDTIDHGWNQAEYERIIGKDKVLVEENTYIAADRRPDNRTRKAIMVFVNGGITYWEVAALRLLAIQKNFRILICTTHVIKKREYLEVRAKDASSVFGS | not soluble
4 | MRDMIYGEMALVSHTHPAAVGSTTCYEKNQQKQQQVQQIPTQPQVAHVSSNAILAAAQPFYPPPVQDSQPDRPIGYGAFGVVWSVTDPRSGKRVALKKMPNVFQNLASCKRVFREIKMLSSFRHDNVLSLLDILQPANPSFFQELYVLTELMQSDLHKIIVSPQALTPDHVKVFVYQILRGLKYLHTANILHRDIKPGNLLVNSNCILKICDFGLARTWDQRDRLNMTHEVVTQYYRAPELLMGARRYTGAVDIWSVGCIFAELLQRKILFQAAGPIEQLQMIIDLLGTPSQEAMKYACEGAKNHVLRAGLRAPDTQRLYKIASPDDKNHEAVDLLQKLLHFDPDKRISVEEALQHRYLEEGRLRFHSCMCSCCYTKPNMPSRLFAQDLDPRHESPFDPKWEKDMSRLSMFELREKMYQFVMDRPALYGVALCINPQSAAYKNFASSSVAQASELPPSPQAW | not soluble
5 | GPGSMSAAACSWRHTEWTPYEVLNVPPSAPIGDIRAAFKCMALHTHPDKATVTTSARRASGSGATSCSEFPVSFHIVKEASEMLLDPYLRAAYDAARSQALTREVGAISDTYSLMDDFVRVRMDGDESDRQRVHVYQRECRCGGVYEVAVFPEAPAGSGEDEDVPLTYSARTLRCECDSCSLVVEVVA | soluble
6 | MGSDKIHHHHHHMETLRILHTNDLHSHFEHFPKIGRYLKKAQADNSVDEVYTFDAGDFMDRSHPLTDATEGQANIKLMNGFKYTAVTIGNNEGISNPHWVLEHLFDHADFPTVLANLREEDESMPNWAIGHKILTTKKNTRIALIGLTAAYPMTYGPNHWHVKMLGSTMDKELAKINGQYDMLILITHIGLKMDRWLAKNYPQIDLIVGGHSHDLIVQGEKVDHTWITQTGKWGNYVGDIHVELEDHHVTKIVPNTVATASMPEEPEDESVIKGYYEKGKQLLSERKVAKLPEKFADDKIAAVQVSLDAIADFAKTDLAILSSGLFLTPFKSGILTQFDLQNALPHPMHVVRSTLKGSDLWRLVMEIEKNRHYLDHFPLQGMSFRGKIFGQMYYKGIKVDMRKRIVYVNGQEINPDSEYRIACLDHYVLVPFFPTLAIVGENEFLFPQFLREVVGDYLAKKYPLPARSEIND | not soluble
7 | MSLATIDSMNKDTTRLSDGPDWTFDLLDVYLAEIDRVAKLYRLDTYPHQIEVITSEQMMDAYSSVGMPINYPHWSFGKKFIETERLYKHGQQGLAYEIVINSNPCIAYLMEENTITMQALVMAHACYGHNSFFKNNYLFRSWTDASSIVDYLIFARKYITECEERYGVDEVERLLDSCHALMNYGVDRYKRPQKISLQEEKARQKSREEYLQSQVNMLWRTLPKREEEKTVAEARRYPSEPQENLLYFMEKNAPLLESWQREILRIVRKVSQYFYPQKQTQVMNEGWATFWHYTILNHLYDEGKVTERFMLEFLHSHTNVVFQPPYNSPWYSGINPYALGFAMFQDIKRICQSPTEEDKYWFPDIAGSDWLETLHFAMRDFKDESFISQFLSPKVMRDFRFFTVLDDDRHNYLEISAIHNEEGYREIRNRLSSQYNLSNLEPNIQIWNVDLRGDRSLTLRYIPHNRAPLDRGRKEVLKHVHRLWGFDVMLEQQNEDGSVELLERCPPRMGNLEGHHHHHH | soluble
8 | MIKRNLLVMGLAVLLSACGFQLRGTGTTELAIKELDVSARNAYGETVTQLTRLLTSSGVKVYTGAPYKLILTSENETQRTISFSGSGRSAEYQLTNTLTYEIHGDRDRLLLDNKVSADRSYVHDGNNLTGSDQEASQVRQEMRNDLIQKLMARLQQLTPSRLDELQAKADAVAKAEADALEAAQRIRDETPQQSPVEVPARLEHHHHHH | not soluble
9 | AQPDIKFASKEYGVTIGESRIIYPLDAAGVMVSVKNTQDYPVLIQSRIYDENKEKESEDPFVVTPPLFRLDAKQQNSLRIAQAGGVFPRDKESLKWLCVKGIPPKDEDIWVDDATNKQKFNPDKDVGVFVQFAINNCIKLLVRPNELKGTPIQFAENLSWKVDGGKLIAENPSPFYMNIGELTFGGKSIPSHYIPPKSTWAFDLPKGLAGARNVSWRIINDQGGLDRLYSKNVTL | soluble
10 | MTEPTVARPDIDPVLKMLLDTFPVTFTAADGVEVARARLRQLKTPPELLPELRIEERTVGYDGLTDIPVRVYWPPVVRDNLPVVVYYHGGGWSLGGLDTHDPVARAHAVGAQAIVVSVDYRLAPEHPYPAGIDDSWAALRWVGENAAELGGDPSRIAVAGDSAGGNISAVMAQLARDVGGPPLVFQLLWYPTTMADLSLPSFTENADAPILDRDVIDAFLAWYVPGLDISDHTMLPTTLAPGNADLSGLPPAFIGTAEHDPLRDDGACYAELLTAAGVSVELSNEPTMVHGYVNFALVVPAAAEATGRGLAALKRALHA | soluble
11 | MDGKRVWLSDDELTRFIEQAETPHQRLAFLLAGRVGLRRSEIIEVCPQDLVDGPTGDHIRVWESYAKRDKYREPPVPQEVVTIAETLAYQQDDDEPLLDVAGSTVYRWVRRAADELEEETGDRGWQYLDVHDLRRTWGTYLLEQGVIPSVVMSFGGWEDWDTFRKHYLGLEHHHHHH | not soluble
12 | MSLCGIAGWVSFERDLSTQRAVAETMTKTMALRGPDDEGLWLDRRAALGHRRLSIIDLEGGRQPMTADEDGRTLACLVYTGEVYNFRELRLELQGLGHAFRTRSDTEVVLRAYLQWGEAMLERLNGMYAFALWDAREQRLLLVRDRMGVKPLYYYPMPDGVLFGSEPKAILAHPEAERRVTAGGLREMLDLVKTPEAAAFAGMHEVRPGQVVTIDRGGLRKRRYWQLEAREHTDDLPTTIRTVRELLDDIVERQIIADVPLCTLLSGGLDSSVVTALAARSMRRQGKGTVRSFSVDFVKHGAAFEADYLRGSPDAPFVRDLAAHAGTEHREILLESRELADPRLRAAVLGAQDLPPAYWGDMLPSLYKLFEAIRAQSTVALSGESADEVFGGYRWFHDAAAVDGDAFPWLAGSSGAFFDGQSLIAPGLLRELDMPGFRRDSYAQALAEVPRLASDSTRERRMREISHMHLTRFVQALLDRKDRMSMAVGLEVRVPFCDHRLVEYVFNAPWSMKNFDGREKSLLRAAGKDVLPESIVRRVKSPYPATQDPAYEQALRQGLARVLDDSRSPALPLLDKAAAWKLLDRPFGKTSTSPERAGLEMALGLDEWLRHHQVSLDLEGHHHHHH | not soluble
13 | MKTINVFHYDAFTNKPNMGNPAGIVLDADGLTEEEMQRIAEKVGFNETSFVLSSEVADIRMRYFTPGYEMDLCGHGTVGTIYALRERGLLEEKASLTIETKAGILPIQIGVNENGETFIKMRQTAPQFKDFAGSKEELAHSIGLEVNDLDVSLPIVYGSTGNWTVIVPVKNLDVCERMKPNNEVFPSVLKEIPNASIHPICLETYDEKVHMHGRHFSSAYAGTIEDPVTGTASGVMGAYYATYVEKDFDHEMELIVEQGQEIHKDGRVTVYVTKDVESEKLQIDIAGTAVYVKEFEVLI | soluble
